# From patent publication US12624112 (MABWELL SHANGHAI BIOSCIENCE, dated 2026)
# Positions count from the first letter of the chain named.
# B1: 5888-379-H1L0 (antibody, human IgG4 S228P, kappa, V domains shown)
# VH: QVQLVQSGAEVKKPGASVKVSCKASGYTFINYGMNWVRQAPGQRLEWMGWINTYIGEPTYGDNFKGRVTITRDTSASTAYMELSSLRSEDTAVYYCAREGEGFAYWGQGTLVTVSS
# VL: DIQMTQSPSSLSASVGDRVTITCKSSQSLLYSGNQNNYLAWYQQKPGKVPKLLIYGASTRESGVPSRFSGSGSGTDFTLTISSLQPEDVATYYCQNDHSYPYTFGGGTKVEIKR
# notes: Humanized antibody
# B2: 5888-379-H2L1 (antibody, human IgG4 S228P, kappa, V domains shown)
# VH: B1 VH with E101D, G102A
# VL: B1 VL with V89L
# notes: Humanized antibody
# B3: 5886-156-H1L0 (antibody, human IgG4 S228P, kappa, V domains shown)
# VH: QVQLQESGPGLVKPSQTLSLTCTVSGYSITSDYAWNWIRQPPGKGLEWIGYIDYSGSTTYNPSLKSRVTISRDTSKNQFSLKLSSVTAADTAVYYCASTVIDSMDYWGQGTLVTVSS
# VL: DIVLTQSPASLAVSPGQRATITCRASKSVSTSGHSYMHWYQQKPGQPPKLLIYLASNLESGVPARFSGSGSGTDFTLTINPVEANDTANYYCQHSREFPFTFGQGTKVEIKR
# notes: Humanized antibody expressed in CHO-K1, purified by protein A
# B4: 5887-41-H1L0 (antibody, human IgG4 S228P, kappa, V domains shown)
# VH: B3 VH with N36D, D53R, S57D, T59Y, S98T, V100M, I101M, S103T
# VL: B3 VL with H34N, F100L, V108L
# notes: Humanized antibody
# Biological target: T1, ST2 on the effector cells (KU812, KU812/NF-κB-1#, HUVEC, HMC-1) (human, UniProt Q01638 19-556)
# T1 sequence (looked up): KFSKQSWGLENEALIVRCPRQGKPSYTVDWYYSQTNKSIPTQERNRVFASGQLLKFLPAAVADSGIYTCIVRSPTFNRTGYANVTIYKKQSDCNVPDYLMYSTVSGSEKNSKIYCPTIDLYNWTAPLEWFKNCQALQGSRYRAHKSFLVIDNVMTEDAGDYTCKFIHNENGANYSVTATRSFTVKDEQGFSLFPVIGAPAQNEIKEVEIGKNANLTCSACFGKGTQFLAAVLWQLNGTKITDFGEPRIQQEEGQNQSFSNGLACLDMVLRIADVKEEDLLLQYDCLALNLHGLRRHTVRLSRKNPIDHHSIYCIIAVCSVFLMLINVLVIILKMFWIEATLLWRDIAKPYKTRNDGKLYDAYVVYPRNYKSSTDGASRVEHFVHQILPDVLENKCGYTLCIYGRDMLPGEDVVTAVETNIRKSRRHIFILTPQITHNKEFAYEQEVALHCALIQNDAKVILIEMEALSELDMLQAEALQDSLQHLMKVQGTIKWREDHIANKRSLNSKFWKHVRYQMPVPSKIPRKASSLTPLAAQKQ
# Experiment: cell-based or functional assay
Binder,"IC50, inhibition of KU812-IL5 production promoted by IL-33 (human IL33-his)","Maximum inhibition rate, KU812-IL5 production by IL-33","Relative activity compared with CNTO7160, KU812-IL5 production by IL-33"
B1,0.0874 µg/mL,99.4%,131%
B2,0.0839 µg/mL,98%,121%
B3,0.0354 µg/mL,98.1%,181%
B4,0.0699 µg/mL,97.3%,91.7%

# Biological target: T1, ST2 on the effector cells (KU812, …)
# Experiment: cell-based or functional assay
# Remark: another data set of the same source
Binder,"IC50, inhibition of activation of KU812-NF-κB reporter gene by IL33","Maximum inhibition rate, KU812-NF-κB reporter gene","Relative activity compared with CNTO7160, KU812-NF-κB reporter gene"
B3,0.478 µg/mL,92.5%,41.9%
B4,0.0554 µg/mL,89.2%,362%

# Biological target: T1, ST2 on the effector cells (KU812, …)
# Experiment: cell-based or functional assay
# Remark: another data set of the same source
Binder,"IC50, inhibition of KU812-IL5 production promoted by oxidized IL33","Maximum inhibition rate, KU812-IL5 production by oxidized IL33","Relative activity, KU812-IL5 production by oxidized IL33"
B1,0.0161 µg/mL,101%,137%
B2,0.0228 µg/mL,101%,96.8%
B3,0.0285 µg/mL,101%,77.5%
B4,0.0337 µg/mL,101%,65.4%

# Biological target: T1, ST2 on the effector cells (KU812, …)
# Experiment: cell-based or functional assay
# Remark: another data set of the same source
Binder,"IC50, inhibition of KU812-IL5 production promoted by reduced IL33","Maximum inhibition rate, KU812-IL5 production by reduced IL33","Relative activity, KU812-IL5 production by reduced IL33"
B1,2.87 µg/mL,96.7%,51.1%
B2,2.87 µg/mL,96.7%,51.1%
B3,0.752 µg/mL,93.4%,195%
B4,0.706 µg/mL,78.6%,208%

# Biological target: T1, ST2 on the effector cells (KU812, …)
# Experiment: cell-based or functional assay
# Remark: another data set of the same source
Binder,"IC50, inhibition of HUVEC-IL6 production promoted by IL33","Maximum inhibition rate, HUVEC-IL6 production by IL33","Relative activity, HUVEC-IL6 production by IL33"
B1,16.1 µg/mL,83%,16.9%
B2,26.1 µg/mL,71.6%,10.4%
B3,4.05 µg/mL,87.9%,67.3%
B4,1.31 µg/mL,93.2%,208%

# Biological target: T1, ST2 on the effector cells (KU812, …)
# Experiment: cell-based or functional assay
# Remark: another data set of the same source
Binder,"IC50, inhibition of HMC-1 IL8 production promoted by IL33","Maximum inhibition rate, HMC-1 IL8 production by IL33","Relative activity, HMC-1 IL8 production by IL33"
B1,0.334 µg/mL,85.6%,30.1%
B2,0.23 µg/mL,90.2%,43.8%
B3,0.177 µg/mL,81%,56.9%
B4,0.123 µg/mL,77.8%,81.6%

# Biological target: Human ST2-fc (human) (UniProt Q01638)
# Experiment: competition ELISA, coated ST2-fc, competitor IL33-his
Binder,IC50,Maximum inhibition rate,Relative activity compared with CNTO7160
B1,0.465 µg/mL,89.1%,188%
B2,0.427 µg/mL,84.8%,206%
B3,1.22 µg/mL,89.2%,103%
B4,0.58 µg/mL,92.8%,216%

# Biological target: T2, Human ST2-his (human, UniProt Q01638-2 19-328, limits assumed)
# T2 construct: Expressed in CHO-K1; The printed range starts at Met1; also called human ST2 fused with a 6-histidine tag at the C-terminus
# T2 sequence: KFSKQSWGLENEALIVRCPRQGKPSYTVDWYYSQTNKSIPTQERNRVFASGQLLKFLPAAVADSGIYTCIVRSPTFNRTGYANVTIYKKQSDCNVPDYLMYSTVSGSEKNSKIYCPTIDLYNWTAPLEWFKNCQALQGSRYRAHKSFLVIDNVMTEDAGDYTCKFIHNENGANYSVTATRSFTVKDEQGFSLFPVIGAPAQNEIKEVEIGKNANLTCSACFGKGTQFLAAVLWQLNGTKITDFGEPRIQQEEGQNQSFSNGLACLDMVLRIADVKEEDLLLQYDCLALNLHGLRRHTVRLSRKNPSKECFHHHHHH
# Experiment: SPR Biacore X100, ratio of kd at pH 5.5 to kd at pH 7.4
# Experimental: (§1) The experiment on the interaction between the anti-human ST2 antibodies and human ST2-his was performed using Biacore X100.
# (§2) Each anti-human ST2 antibody was diluted to 2 µg/mL and captured on the surface of a protein A chip for a capture time of 60 s. Following the antibody capture, a solution of human ST2-his (2-fold gradient dilution from a starting concentration of 20 nM, to obtain 6 concentrations in total) was injected. Association was monitored for 180 s and dissociation was monitored for 700 s, and the sensor surface was regenerated by injecting a solution of glycine at pH 2.0. Kinetic data were analyzed using a simple 1:1 binding model.
row,Binder,kd ratio of pH 5.5/pH 7.4
1,B1,7.26
2,B2,11.9
3,B3,1.03
4,B4,1

# Biological target: T2, Human ST2-his
# Experiment: SPR Biacore X100, antibody captured on protein A chip, human ST2-his injected, pH 7.4
# Experimental: as §1, §2
Binder,Kd,koff,kon
B1,452 pM,0.000351 s⁻¹,777000 M⁻¹ s⁻¹
B2,495 pM,0.000485 s⁻¹,979000 M⁻¹ s⁻¹
B3,275 pM,0.000272 s⁻¹,990000 M⁻¹ s⁻¹
B4,214 pM,9.98e-05 s⁻¹,467000 M⁻¹ s⁻¹

# Biological target: T2, Human ST2-his
# Experiment: SPR Biacore X100, antibody captured on protein A chip, human ST2-his injected, dissociation at pH 5.5
# Experimental: as §1, §2
Binder,Kd,koff,kon
B1,1430 pM,0.00255 s⁻¹,1.79e+06 M⁻¹ s⁻¹
B2,1670 pM,0.00575 s⁻¹,3.46e+06 M⁻¹ s⁻¹
B3,276 pM,0.000279 s⁻¹,1.01e+06 M⁻¹ s⁻¹
B4,161 pM,0.0001 s⁻¹,622000 M⁻¹ s⁻¹
